Molecular target: T1, human CD20 (B-lymphocyte antigen CD20) (human, UniProt P11836 1-297)
T1 sequence (looked up): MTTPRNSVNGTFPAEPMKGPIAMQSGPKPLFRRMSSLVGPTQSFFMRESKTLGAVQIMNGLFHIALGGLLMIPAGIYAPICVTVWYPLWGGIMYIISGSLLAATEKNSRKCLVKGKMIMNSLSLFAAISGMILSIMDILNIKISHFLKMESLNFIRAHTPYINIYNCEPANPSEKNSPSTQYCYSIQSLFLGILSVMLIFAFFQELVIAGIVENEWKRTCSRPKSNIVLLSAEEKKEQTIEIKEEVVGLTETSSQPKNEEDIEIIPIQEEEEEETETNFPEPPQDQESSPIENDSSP
Test: cell-based or functional assay

EC50 of RTCC against Ramos cells with purified T cells from six healthy donors: 0.0053 to 0.0143 µg/mL
B1: XmAb13676 Anti-CD20 x Anti-CD3 Fab-scFv-Fc bispecific antibody (bispecific antibody)
heavy: QVQLVQSGAEVKKPGASVKVSCKASGYTFTSYNMHWVRQAPGQGLEWMGAIYPGNGDTSYNQKFQGRVTITADKSISTAYMELSSLRSEDTAVYYCARSTYYGGDWYFNVWGAGTLVTVSSASTKGPSVFPLAPSSKSTSGGTAALGCLVKDYFPEPVTVSWNSGALTSGVHTFPAVLQSSGLYSLSSVVTVPSSSLGTQTYICNVNHKPSDTKVDKKVEPKSCDKTHTCPPCPAPPVAGPSVFLFPPKPKDTLMISRTPEVTCVVVDVKHEDPEVKFNWYVDGVEVHNAKTKPREEEYNSTYRVVSVLTVLHQDWLNGKEYKCKVSNKALPAPIEKTISKAKGQPREPQVYTLPPSREEMTKNQVSLTCDVSGFYPSDIAVEWESDGQPENNYKTTPPVLDSDGSFFLYSKLTVDKSRWEQGDVFSCSVMHEALHNHYTQKSLSLSPGK
scFv: not shown
light: QIVLTQSPSSLSASVGDRVTITCRASSSVSYIHWFQQKPGKSPKPLIYATSNLASGVPVRFSGSGSGTDYTLTISSLQPEDFATYYCQQWTSNPPTFGGGTKVEIKRTVAAPSVFIFPPSDEQLKSGTASVVCLLNNFYPREAKVQWKVDNALQSGNSQESVTEQDSKDSTYSLSSTLTLSKADYEKHKVYACEVTHQGLSSPVTKSFNRGEC
EC50 of Jeko-1 target cell killing in the absence of rituximab: 0.024 µg/mL
EC50 of Jeko-1 target cell killing with 3 μg/ml rituximab: 0.051 µg/mL
EC50 of Jeko-1 target cell killing with 10 μg/ml rituximab: 0.093 µg/mL
EC50 of Jeko-1 target cell killing with 30 μg/ml rituximab: 0.162 µg/mL
EC50 of Jeko-1 target cell killing with 100 μg/ml rituximab: 0.387 µg/mL
potency of killing of SC-1 against the cell lines with high or intermediate CD20 levels: ~10 fold

Source: patent WO2018223004A1 (dated 2018)
